Source: patent US20020064802, “Methods for binding an exogenous molecule to cellular chromatin” (published 2002)

Columns and labels:
[1] = target: BOS 3 fusion (NLS-ZFP-KRAB-FLAG) (synthetic construct); test: ChIP anti-FLAG, MCF-7 cells, amplicon 230 bp upstream of site; conditions: tags: NLS, KRAB repression domain
Procedure: The sonicated lysate was centrifuged at 13,000 rpm for 10 min at 4° C., and the supernatant was recovered. 1.8 ml of ChIP buffer (16.7 mM Tris-Cl, pH 8.1, 1.2 mM EDTA, 167 mM NaCl, 1.1% Triton X-100, 0.01% SDS, 0.5 mM PMSF, 20 ug/ml aprotinin, 20 ug/ml pepstatin, 20 ug/ml leupeptin) was added to the cleared supernatant and 0.2 ml was removed as a pre-immunoprecipitation (pre-IP) input control. The input control sample was analyzed by agarose gel electrophoresis to verify that DNA fragments of 200-500 nucleotide pairs had been obtained.
The remainder of the sonicated lysate was pre-cleared by adding 0.1 ml of a 50% slurry of Protein A agarose beads (also containing salmon sperm DNA at 200 ug/ml), followed by gentle agitation for 90 min. The lysate was separated from the beads by centrifugation at 1,000 xg for 5 min at 4° C. The cleared lysate was divided into two equal portions. […]
Immune complexes were eluted from the beads by washing them twice with 0.25 ml of 1% SDS, 0.1 M NaHCO₃. […] The purified DNA was analyzed by real-time quantitative PCR, an assay known colloquially as “Taqman®.” The DNA was analyzed for the relative proportion of two sequences: (1) a region located 230 nucleotide pairs upstream of the BOS 3 binding site, and (2) a control sequence from the 18S rRNA gene.

[2] = target: T1, VEGF 1 ZFP (NLS-ZFP-VP16-FLAG) (synthetic construct (SP1 backbone)); test: ChIP anti-FLAG, 293 cells, GAPDH-normalized; 8.3 in Table 7
T1 chain: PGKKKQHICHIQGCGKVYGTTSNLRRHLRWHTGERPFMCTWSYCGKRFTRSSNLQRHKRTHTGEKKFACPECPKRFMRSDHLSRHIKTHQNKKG
Procedure: (§1) Immunoprecipitated DNA, obtained as described in Example 11, was used as template in a real-time amplification assay. Three DNA targets were assayed: the integrated reporter gene containing four tandem VEGF 3a/1 binding sites (pGL-VFR), the endogenous VEGF gene, and the endogenous glyceraldehyde phosphate dehydrogenase (GAPDH) gene (which was used as a control for nonspecific precipitation).
(§2) The values obtained for the endogenous VEGF gene (VEGF) and for the integrated reporter containing VEGF target sites (pGL-VFR), normalized to the values obtained for GAPDH, were then normalized to the values obtained for cells transfected with NVF, a construct that lacks a zinc finger DNA-binding domain, to obtain a value for the degree to which VEGF sequences were enriched in immunoprecipitates from cells transfected with a construct encoding a ZFP. […] Furthermore, sequences from an integrated reporter gene containing VEGF target sequences were enriched 170-fold by the VEGF 3a/1 protein and approximately 8-fold by the three-finger VEGF 1 protein.

[3] = target: T1, VEGF 1 ZFP (NLS-ZFP-VP16-FLAG); test: cell_activity; 293 cells, integrated reporter; 6 in Table 8
[4] = target: T1, VEGF 1 ZFP (NLS-ZFP-VP16-FLAG); test: cell_activity; 293 cells; VEGF protein 1.5; mRNA 2.7 and protein 3.1 in Table 9
Source text: Activation of the integrated luciferase reporter gene containing VEGF target sites and immunoprecipitation of reporter sequences by the VEGF 1 and VEGF 3a/1 proteins, as shown in examples 10 and 11, provided evidence that these exogenous ZFPs are binding to their target sites in cellular chromatin. To investigate this question further, the expression of the endogenous VEGF gene was examined in cells containing exogenous VEGF 1 and VEGF 3a/1 proteins. Accordingly, the same samples that were analyzed in Examples 10 and 11 were assayed for endogenous VEGF MRNA (by real-time PCR analysis using reverse transcriptase-mediated PCR) and for VEGF protein (by ELISA). […] The apparent activation of the endogenous VEGF gene by the GATA 15.5 ZFP is explained by the data obtained in Example 14, infra.
The production of mRNA and protein from the endogenous VEGF gene was assayed as described in Example 13, and the results are shown in Table 9. […] The activation of the endogenous VEGF gene by GATA 15.5 is consistent with the ability of this protein to immunoprecipitate endogenous VEGF sequences (Table 7).

[5] = target: T1, VEGF 1 ZFP (NLS-ZFP-VP16-FLAG); test: ChIP anti-FLAG, 293 cells, GAPDH-normalized
Procedure: as §1, §2

Chain of BOS 3 fusion (NLS-ZFP-KRAB-FLAG) (synthetic construct) (chain, as listed by the source): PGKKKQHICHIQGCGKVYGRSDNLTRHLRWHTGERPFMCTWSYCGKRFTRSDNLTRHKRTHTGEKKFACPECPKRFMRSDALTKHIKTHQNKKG

B1: endogenous ER-alpha gene BOS 3 site, -2 kb hypersensitive region (dsDNA)
DNA 1: GGGGAGGAG
DNA 2: CTCCTCCCC
binding signal [1]: ~20 fold enrichment vs cells without BOS3

B2: pGL-VFR integrated reporter, VEGF 3a/1 target (four tandem copies) (dsDNA)
DNA 1: GGGGAGGATCGCGGAGGCTT
DNA 2: AAGCCTCCGCGATCCTCCCC
binding signal [2]: 10.7 fold enrichment vs NVF | activity [3]: 2.7 fold luciferase vs NVF

B3: endogenous VEGF-A gene target at +1 accessible region (dsDNA)
DNA 1: GGGGAGGATCGCGGAGGCTT
DNA 2: AAGCCTCCGCGATCCTCCCC
activity [4]: 3.2 fold VEGF mRNA vs NVF | binding signal [5]: 4.1 fold enrichment vs NVF
